We go through seven substances from paper PMC9784262.

In series [1] the test system is Nterm (position 1, -----FR----). The experiment in a line: potentiometry. The note with it: 25 °C; not stated (no added salt mentioned); none stated (unbuffered aqueous surfactant solution, N2 atmosphere, magnetic stirring); aggregated (micellar): post-micellar surfactant concentration, exact concentration not stated.
Series [2] has as its system Nterm (position 1, -----WR----). The experiment in a line: potentiometry. The note with it: 25 °C; not stated (no added salt mentioned); none stated (unbuffered aqueous surfactant solution, N2 atmosphere, magnetic stirring); aggregated (micellar): post-micellar surfactant concentration, exact concentration not stated.

For the substance “PANHC12 (phenylalanine-arginine dodecyl amide dihydrochloride) (synthetic)”, the pKa in series [1] turned out to be 6.1.

For “TANHC14 (tryptophan-arginine tetradecylamide dihydrochloride) (synthetic)”, the pKa in series [2] amounted to 7.0.

Take “TANHC10 (tryptophan-arginine decyl amide dihydrochloride) (synthetic)”: the pKa in series [2] was determined as 7.2.

Consider “TANHC12 (tryptophan-arginine dodecyl amide dihydrochloride) (synthetic)”, for which, in series [2], the pKa amounted to 7.8.

Regarding “PANHC8 (phenylalanine-arginine octyl amide dihydrochloride) (synthetic)”, the pKa in series [1] stood at 6.9.

In the case of “PANHC14 (phenylalanine-arginine tetradecylamide dihydrochloride) (synthetic)”, the pKa in series [1] came to 5.9.

Regarding “PANHC10 (phenylalanine-arginine decyl amide dihydrochloride) (synthetic)”, the pKa in series [1] came to 6.9.
